Assay results from publication PMC8133392.

Tests used:
Experiment in all cases: other fluorescence titration
[1] = target: unmodified H3 (aa 1–12) peptide (UniProt P68431)
H3K4ac peptide = target: H3K4ac peptide
H3K4me3 peptide = target: H3K4me3 peptide

**Q.** How did the Kd [1] turn out when “ZZEF1ZZ2 with H1877 replaced by tryptophan (for tryptophan fluorescence) (domain or fragment)” was run?
**A.** 4.3 µM

**Q.** And the Kd (H3K4ac peptide)?
**A.** 11 µM

**Q.** What about the Kd (H3K4me3 peptide) of the same substance?
**A.** 4.8 µM
